In paper PMC8100066, “PIM-induced phosphorylation of Notch3 promotes breast cancer tumorigenicity in a CSL-independent fashion” (The Journal of Biological Chemistry, 2021):

Molecular target: T1, mouse CSL (amino acid residues 53-474), conserved and structurally ordered core domain (mouse, UniProt P31266 53-474)
T1 construct: The SMT3 tag was cut off with ubiquitin-like protease and separated by ion exchange; also called RBPJ; mCSL
Assay: ITC; CSL in the cell at 10 μM, RAM peptides in the syringe at 100 μM; 20 °C; 50 mM sodium phosphate, 150 mM sodium chloride; triplicate, 20 injections of 14 μl
Conditions: both partners purified

T1 sequence (P31266 53-474): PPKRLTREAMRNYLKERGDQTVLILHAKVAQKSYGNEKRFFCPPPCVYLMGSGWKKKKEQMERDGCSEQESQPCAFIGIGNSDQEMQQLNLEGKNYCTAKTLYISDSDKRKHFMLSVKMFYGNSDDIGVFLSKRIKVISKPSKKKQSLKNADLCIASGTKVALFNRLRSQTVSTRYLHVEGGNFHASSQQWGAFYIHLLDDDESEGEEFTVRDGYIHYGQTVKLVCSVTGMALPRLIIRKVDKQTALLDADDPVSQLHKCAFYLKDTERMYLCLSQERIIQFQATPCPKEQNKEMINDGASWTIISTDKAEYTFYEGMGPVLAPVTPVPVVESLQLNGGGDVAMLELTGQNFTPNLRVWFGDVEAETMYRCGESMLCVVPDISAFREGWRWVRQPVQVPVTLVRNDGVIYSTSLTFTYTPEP

- Kd: 0.022 µM
B1: human NOTCH1 RAM peptide (residues 1754-1781) (peptide)
peptide: VLLSRKRRRQHGQLWFPEGFKVSEASKK
notes: NOTCH1, human, RAM domain, residues 1754-1781; also called N1RAM; source: synthetic peptide (Peptide2.0, 95% purity)
